US20250269027A1

Target: Mesothelin (MSLN) expressed on target cells (human) (UniProt Q13421)
Experiment: cell-based or functional assay

EC50 (functional sensitivity), Jurkat NFAT-luciferase, MSLN molecules/cell on HEK293 cells (molecules/cell): 80000
Substance: m912 benchmark MSLN CAR (scFv)
